Measurements: publication PMC10901556, “Conservation of Affinity Rather Than Sequence Underlies a Dynamic Evolution of the Motif-Mediated p53/MDM2 Interaction in Ray-Finned Fishes” (Molecular Biology and Evolution, 2024)
Where no end group is shown, it is not given here.

How the values were obtained:
[1] = target: T1, MDM2_(D.rerio) SWIB domain (Danio rerio (zebrafish)); experiment: FP; conditions: modification not given
T1 chain: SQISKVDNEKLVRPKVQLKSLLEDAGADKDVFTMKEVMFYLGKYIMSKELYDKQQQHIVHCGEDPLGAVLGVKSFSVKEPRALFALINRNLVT

[2] = target: MDM2 SWIB domain from Channa argus (Channa argus); experiment: fluorescence polarisation; displacement: complex of MDM2 (0.2-2 μM) and FITC-p53TAD_(human)^15–26 (15 nM) displaced by increasing unlabeled p53TAD peptide or p53TAD^full-length; KD calculated from IC50 (Nikolovska-Coleska et al. 2004); 20 mM sodium phosphate pH 7.4, 150 mM NaCl, 1 mM TCEP
[3] = target: MDM2_(H.sapiens) SWIB domain (Homo sapiens (human)); experiment: as above
[4] = target: MDM2 SWIB domain from Maylandia zebra (Maylandia zebra); experiment: as above
[5] = target: MDM2 SWIB domain from Takifugu rubripes (Japanese puffer) (Takifugu rubripes (Japanese puffer)); experiment: as above
[6] = target: MDM2 SWIB domain from Lepisosteus oculatus (spotted gar) (Lepisosteus oculatus (spotted gar)); experiment: as above
[7] = target: MDM2 SWIB domain from Anguilla anguilla (European eel) (Anguilla anguilla (European eel)); experiment: as above
[8] = target: MDM2 SWIB domain from Clupea harengus (Atlantic herring) (Clupea harengus (Atlantic herring)); experiment: as above
[9] = target: MDM2 SWIB domain from Oncorhynchus kisutch (coho salmon) (Oncorhynchus kisutch (coho salmon)); experiment: as above

B1: p53TAD_(D.rerio)^41-55 (peptide)
chain: IINDEEYLPGSFDPN
Kd [1]: > 200 µM

B2: p53TAD_(D.rerio)^12-55 (peptide)
chain: QNDSQEFAELWEKNLISIQPPGGGSCWDIINDEEYLPGSFDPN
Kd [1]: 0.033 µM

B3: p53TAD_(D.rerio)^35-49 (peptide)
chain: GGSCWDIINDEEYLP
Kd [1]: > 200 µM

B4: p53TAD_(D.rerio)^30-44 (peptide)
chain: IQPPGGGSCWDIIND
Kd [1]: > 200 µM

B5: p53TAD_(D.rerio)^14-26 (peptide)
chain: DSQEFAELWEKN
Kd [1]: > 200 µM

B6: p53TAD_(D.rerio)^49-63 (peptide)
chain: PGSFDPNFFENVLEE
Kd [1]: 210 µM

B7: p53TAD_(D.rerio)^21-35 (peptide)
chain: ELWEKNLISIQPPGG
Kd [1]: > 200 µM

B8: Channa argus p53TADP1 p53TAD^15–27 (peptide)
peptide: Ac-SQDSFRELWESVV
Kd [2]: 3.3 µM
Kd [3]: 1.1 µM

B9: Maylandia zebra p53TADP1 p53TAD^15–27 (peptide)
peptide: Ac-SQDSFKELWDQLP
Kd [4]: 1.6 µM
Kd [3]: 0.27 µM

B10: Takifugu rubripes (Japanese puffer) p53TADP1 p53TAD^15–27 (peptide)
peptide: Ac-SQDTFQDLWENVA
Kd [3]: 1.7 µM
Kd [5]: 4.5 µM

B11: Lepisosteus oculatus (spotted gar) p53TAD^15–27 (peptide)
peptide: Ac-SQESFQELWNMVI
Kd [6]: 0.39 µM
Kd [3]: 0.121 µM

B12: Anguilla anguilla (European eel) p53TADP1 p53TAD^15–27 (peptide)
peptide: Ac-SQESFQELWKMMC
Kd [7]: 0.19 µM
Kd [3]: 0.013 µM

B13: Anguilla anguilla p53TADP2 p53TAD^15–27 (peptide)
peptide: Ac-SQDETFQALWNTVT
Kd [7]: 1.2 µM
Kd [3]: 0.77 µM

B14: Clupea harengus (Atlantic herring) p53TADP1 p53TAD^15–27 (peptide)
peptide: Ac-SQGTFDEIWASNF
Kd [3]: 1.25 µM
Kd [8]: 2.6 µM

B15: Oncorhynchus kisutch (coho salmon) p53TADP1a p53TAD^15–27 (peptide)
peptide: Ac-GQCSFQQLWESNM
Kd [3]: 3.15 µM
Kd [9]: 2.1 µM

B16: Oncorhynchus kisutch p53TADP1b p53TAD^15–27 (peptide)
peptide: Ac-SQGSFQQLWETNM
Kd [3]: 5.15 µM
Kd [9]: 3.5 µM

B17: Oncorhynchus kisutch p53TADP2 p53TAD^15–27 (peptide)
peptide: Ac-SQESFEDLWKMNL
Kd [3]: 0.79 µM
Kd [9]: 1.16 µM

B18: Danio rerio (zebrafish) p53TADP2 p53TAD^15–27 (peptide)
peptide: Ac-SQEFAELWEKNL
Kd [3]: 4.33 µM
